The chains are these.
B1: Pistol ribozyme (parent)
chain: GGGUCGUUGUUCCAUAAUCGCGUGGAUAUGGCACGCAAGUUUCUACCGGGCACCGUAAAUGUCCGACUGGAGCCGUUCGGGCGGCUAUAAACAGACCUCAGGCCCGAAGCGUGGCGGCACCUGCCGCCGGUGGUAAAAAAGAUCGGAAGAGCACACGUCU

Variants of B1 are the subject of this series. Briefly: aptazyme ON/OFF ratio, guanine; higher = stronger switching; co-transcriptional cleavage with and without guanine.
For GGGUCGUGACGGGAUAAUCGCGUGGAUAUGGCACGCAAGUUUCUACCGGGCACCGUAAAUGUCCGACUGGAGCCGUUCGGGCGGCUAUAAACAGACCUCAGGCCCGAAGCGUGGCGGCACCUGCCGCCGGUGGUAAAAAAGAUCGGAAGAGCACACGUCU [U8G G9A U10C U11G C12G C13G], the “aptazyme ON/OFF ratio” value amounted to 1.42. For GGGUCGGGCGAGGAUAAUCGCGUGGAUAUGGCACGCAAGUUUCUACCGGGCACCGUAAAUGUCCGACUGGAGCCGUUCGGGCGGCUAUAAACAGACCUCAGGCCCGAAGCGUGGCGGCACCUGCCGCCGGUGGUAAAAAAGAUCGGAAGAGCACACGUCU [U7G U8G G9C U10G U11A C12G C13G] the value was 1.12; for GGGUCGGCACAGAAUAAUCGCGUGGAUAUGGCACGCAAGUUUCUACCGGGCACCGUAAAUGUCCGACUGGAGCCGUUCGGGCGGCUAUAAACAGACCUCAGGCCCGAAGCGUGGCGGCACCUGCCGCCGGUGGUAAAAAAGAUCGGAAGAGCACACGUCU [U7G U8C G9A U10C U11A C12G C13A], 1.06; for GGGUCGGGGAGUAAUAAUCGCGUGGAUAUGGCACGCAAGUUUCUACCGGGCACCGUAAAUGUCCGACUGGAGCCGUUCGGGCGGCUAUAAACAGACCUCAGGCCCGAAGCGUGGCGGCACCUGCCGCCGGUGGUAAAAAAGAUCGGAAGAGCACACGUCU [U7G U8G U10A U11G C12U C13A], 1.23. Turning to GGGUCGCAGGUCAAUAAUCGCGUGGAUAUGGCACGCAAGUUUCUACCGGGCACCGUAAAUGUCCGACUGGAGCCGUUCGGGCGGCUAUAAACAGACCUCAGGCCCGAAGCGUGGCGGCACCUGCCGCCGGUGGUAAAAAAGAUCGGAAGAGCACACGUCU [U7C U8A U10G C13A], the “aptazyme ON/OFF ratio” value came to 1.52.

For GGGUCGCGCGCAGAUAAUCGCGUGGAUAUGGCACGCAAGUUUCUACCGGGCACCGUAAAUGUCCGACUGGAGCCGUUCGGGCGGCUAUAAACAGACCUCAGGCCCGAAGCGUGGCGGCACCUGCCGCCGGUGGUAAAAAAGAUCGGAAGAGCACACGUCU [U7C U8G G9C U10G U11C C12A C13G], the “aptazyme ON/OFF ratio” value turned out to be 1.16. With GGGUCGCAUGCCGAUAAUCGCGUGGAUAUGGCACGCAAGUUUCUACCGGGCACCGUAAAUGUCCGACUGGAGCCGUUCGGGCGGCUAUAAACAGACCUCAGGCCCGAAGCGUGGCGGCACCUGCCGCCGGUGGUAAAAAAGAUCGGAAGAGCACACGUCU [U7C U8A G9U U10G U11C C13G] the figure was 1.07. Consider GGGUCGAAAGCUGAUAAUCGCGUGGAUAUGGCACGCAAGUUUCUACCGGGCACCGUAAAUGUCCGACUGGAGCCGUUCGGGCGGCUAUAAACAGACCUCAGGCCCGAAGCGUGGCGGCACCUGCCGCCGGUGGUAAAAAAGAUCGGAAGAGCACACGUCU [U7A U8A G9A U10G U11C C12U C13G], for which the “aptazyme ON/OFF ratio” value stood at 1.19. For GGGUCGAUAGCAUAUAAUCGCGUGGAUAUGGCACGCAAGUUUCUACCGGGCACCGUAAAUGUCCGACUGGAGCCGUUCGGGCGGCUAUAAACAGACCUCAGGCCCGAAGCGUGGCGGCACCUGCCGCCGGUGGUAAAAAAGAUCGGAAGAGCACACGUCU [U7A G9A U10G U11C C12A C13U] the value was 1.11; for GGGUCGUUUUAUAAUAAUCGCGUGGAUAUGGCACGCAAGUUUCUACCGGGCACCGUAAAUGUCCGACUGGAGCCGUUCGGGCGGCUAUAAACAGACCUCAGGCCCGAAGCGUGGCGGCACCUGCCGCCGGUGGUAAAAAAGAUCGGAAGAGCACACGUCU [G9U U11A C12U C13A], 1.02; for GGGUCGCCUGAGAAUAAUCGCGUGGAUAUGGCACGCAAGUUUCUACCGGGCACCGUAAAUGUCCGACUGGAGCCGUUCGGGCGGCUAUAAACAGACCUCAGGCCCGAAGCGUGGCGGCACCUGCCGCCGGUGGUAAAAAAGAUCGGAAGAGCACACGUCU [U7C U8C G9U U10G U11A C12G C13A], 1.06. With GGGUCGUGAUACGAUAAUCGCGUGGAUAUGGCACGCAAGUUUCUACCGGGCACCGUAAAUGUCCGACUGGAGCCGUUCGGGCGGCUAUAAACAGACCUCAGGCCCGAAGCGUGGCGGCACCUGCCGCCGGUGGUAAAAAAGAUCGGAAGAGCACACGUCU [U8G G9A U11A C13G] the figure was 1.07. With GGGUCGGAGAGAUAUAAUCGCGUGGAUAUGGCACGCAAGUUUCUACCGGGCACCGUAAAUGUCCGACUGGAGCCGUUCGGGCGGCUAUAAACAGACCUCAGGCCCGAAGCGUGGCGGCACCUGCCGCCGGUGGUAAAAAAGAUCGGAAGAGCACACGUCU [U7G U8A U10A U11G C12A C13U] the figure was 1.17; with GGGUCGAUUUGCCAUAAUCGCGUGGAUAUGGCACGCAAGUUUCUACCGGGCACCGUAAAUGUCCGACUGGAGCCGUUCGGGCGGCUAUAAACAGACCUCAGGCCCGAAGCGUGGCGGCACCUGCCGCCGGUGGUAAAAAAGAUCGGAAGAGCACACGUCU [U7A G9U U11G], 1.36. GGGUCGUAAAGUAAUAAUCGCGUGGAUAUGGCACGCAAGUUUCUACCGGGCACCGUAAAUGUCCGACUGGAGCCGUUCGGGCGGCUAUAAACAGACCUCAGGCCCGAAGCGUGGCGGCACCUGCCGCCGGUGGUAAAAAAGAUCGGAAGAGCACACGUCU [U8A G9A U10A U11G C12U C13A]: the “aptazyme ON/OFF ratio” value was found to be 1.3. Consider GGGUCGUGUCACGAUAAUCGCGUGGAUAUGGCACGCAAGUUUCUACCGGGCACCGUAAAUGUCCGACUGGAGCCGUUCGGGCGGCUAUAAACAGACCUCAGGCCCGAAGCGUGGCGGCACCUGCCGCCGGUGGUAAAAAAGAUCGGAAGAGCACACGUCU [U8G G9U U10C U11A C13G], for which the “aptazyme ON/OFF ratio” value was 1.04.

Consider GGGUCGGACUUAAAUAAUCGCGUGGAUAUGGCACGCAAGUUUCUACCGGGCACCGUAAAUGUCCGACUGGAGCCGUUCGGGCGGCUAUAAACAGACCUCAGGCCCGAAGCGUGGCGGCACCUGCCGCCGGUGGUAAAAAAGAUCGGAAGAGCACACGUCU [U7G U8A G9C C12A C13A], for which the “aptazyme ON/OFF ratio” value was found to be 1.04. With GGGUCGUCUAUCAAUAAUCGCGUGGAUAUGGCACGCAAGUUUCUACCGGGCACCGUAAAUGUCCGACUGGAGCCGUUCGGGCGGCUAUAAACAGACCUCAGGCCCGAAGCGUGGCGGCACCUGCCGCCGGUGGUAAAAAAGAUCGGAAGAGCACACGUCU [U8C G9U U10A C13A] the figure was 1.29.

The values above are taken from the RNAGym collection of RNA variant scans (doi:10.1021/acssynbio.7b00057).
